In article PMC2948018, “Identification of Thioaptamer Ligand against E-Selectin: Potential Application for Inflamed Vasculature Targeting” one finds binding result and Kd data, which are given here for one molecule.

Common to all, as to test: EMSA; 5 mM Mg2+, Ca2+; EMSA: PBS with Ca2+ and Mg2+, 5 mM MgCl2, 1% NP40, room temperature 45 min, 4.6 pmol ESTA-1 with 0-19 pmol selectin in 10.5 ul, 6% gel run at 4 C; cell binding: 20 min at 37 C; pH not stated
In general terms: Mobility shift assays separate free from complexed probe on a gel.

For one series, the target named is T1, L-selectin (UniProt P14151 39-332).
T1 sequence: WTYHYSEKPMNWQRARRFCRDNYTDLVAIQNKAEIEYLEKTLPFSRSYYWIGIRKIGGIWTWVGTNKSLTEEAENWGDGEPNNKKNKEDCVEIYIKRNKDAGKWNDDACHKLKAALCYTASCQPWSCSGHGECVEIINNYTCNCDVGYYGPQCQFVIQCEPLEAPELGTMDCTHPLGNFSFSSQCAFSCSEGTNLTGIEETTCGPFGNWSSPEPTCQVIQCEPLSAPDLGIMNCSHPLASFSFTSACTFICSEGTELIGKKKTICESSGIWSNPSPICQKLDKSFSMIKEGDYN
The following applies: protein: recombinant; label: none in EMSA (SYBR Gold stain); two hairpin loops (MFOLD).

In series [1] the target is T2, E-selectin extracellular domain (human, UniProt P16581 22-556).
T2 sequence: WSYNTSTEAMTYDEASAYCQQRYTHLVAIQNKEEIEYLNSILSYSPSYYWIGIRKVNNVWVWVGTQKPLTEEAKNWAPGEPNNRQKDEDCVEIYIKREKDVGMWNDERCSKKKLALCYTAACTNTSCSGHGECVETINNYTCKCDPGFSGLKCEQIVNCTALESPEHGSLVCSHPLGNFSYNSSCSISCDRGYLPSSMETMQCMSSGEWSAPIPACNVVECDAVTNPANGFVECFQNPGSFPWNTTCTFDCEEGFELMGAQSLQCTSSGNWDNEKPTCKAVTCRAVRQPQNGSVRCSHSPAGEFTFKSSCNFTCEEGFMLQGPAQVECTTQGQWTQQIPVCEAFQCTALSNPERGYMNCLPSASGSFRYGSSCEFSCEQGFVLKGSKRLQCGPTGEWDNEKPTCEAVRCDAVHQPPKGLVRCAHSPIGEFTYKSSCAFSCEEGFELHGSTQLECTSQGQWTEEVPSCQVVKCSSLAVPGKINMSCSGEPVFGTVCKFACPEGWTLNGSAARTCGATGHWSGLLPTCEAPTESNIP
The following applies: protein: commercial; label: none in EMSA (SYBR Gold stain); two hairpin loops (MFOLD).

A further series addresses P-selectin (UniProt P16109 42-771). The following applies: protein: recombinant; label: none in EMSA (SYBR Gold stain); two hairpin loops (MFOLD).

Chain of P-selectin (P16109 42-771): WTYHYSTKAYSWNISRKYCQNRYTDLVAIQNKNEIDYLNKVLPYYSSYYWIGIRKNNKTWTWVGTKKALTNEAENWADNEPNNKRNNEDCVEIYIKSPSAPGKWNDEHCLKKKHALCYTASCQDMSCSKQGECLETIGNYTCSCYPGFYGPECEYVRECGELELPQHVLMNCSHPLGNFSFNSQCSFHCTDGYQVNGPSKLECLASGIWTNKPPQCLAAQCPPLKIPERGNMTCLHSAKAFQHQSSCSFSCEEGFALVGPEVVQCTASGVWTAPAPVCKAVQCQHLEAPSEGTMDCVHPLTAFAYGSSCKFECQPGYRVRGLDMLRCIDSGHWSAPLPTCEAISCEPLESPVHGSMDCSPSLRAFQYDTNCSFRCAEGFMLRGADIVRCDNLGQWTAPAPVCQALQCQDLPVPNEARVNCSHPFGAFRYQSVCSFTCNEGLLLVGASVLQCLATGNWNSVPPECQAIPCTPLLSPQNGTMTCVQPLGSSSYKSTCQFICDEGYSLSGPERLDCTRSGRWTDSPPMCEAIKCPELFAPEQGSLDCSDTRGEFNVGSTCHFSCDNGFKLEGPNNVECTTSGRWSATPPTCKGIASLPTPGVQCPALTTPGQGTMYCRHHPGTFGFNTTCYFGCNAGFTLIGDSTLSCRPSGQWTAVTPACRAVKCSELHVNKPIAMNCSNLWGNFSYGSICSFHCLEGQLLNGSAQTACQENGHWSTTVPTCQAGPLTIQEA

B1: ESTA-1 (TA-1) (XNA)
DNA: CGCTCGGATCGATAAGCTTCGATCCCACTCTCCCGTTCACTTCTCCTCACGTCACGGATCCTCTAGAGCACTG
modifications: monothiophosphate (Rp) at all dA except 5' primer region
As usually defined, the Kd is the equilibrium constant for the complex coming apart. As for B1, the binding result in the series with L-selectin was “no binding”. Besides, the Kd is 0.047 µM in series [1] and roughly 13 µM with P-selectin.
